Experimental data reported in US20160145343A1 (UNIVERSITY OF PITTSBURGH OF THE COMMONWEALTH SYSTEM OF …, published 2016).
Positions count from the first letter of the chain named. Where no end group is shown, it is not given here. The star is where a group is joined. αGalNAc = CC(=O)N[C@@H]1[C@@H](O)[C@@H](O)[C@@H](CO)O[C@@H]1*; Galβ1‑3GalNAc = TF-antigen

T1: Synthetic peptide HGVTSAPDTRPAPGSTAPP
T1 construct: Unglycosylated; also called 346; MUC1 repeat
T1 peptide: HGVTSAPDTRPAPGSTAPP

T2: Synthetic peptide (GVTSAPDTRPAPGSTAPPAH)2
T2 peptide: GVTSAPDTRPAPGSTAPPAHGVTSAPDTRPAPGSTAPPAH

T3: SEQ ID NO: 346 glycopeptide with TF-antigen at Thr16
T3 construct: also called T16^TF
T3 peptide: HGVTSAPDTRPAPGST(Galβ1‑3GalNAc)APP

T4: SEQ ID NO: 346 glycopeptide with TF-antigen at Ser5 (not fully specified (residue 5))
T4 construct: also called S5^TF
T4 peptide: HGVTSAPDTRPAPGSTAPP

T5: SEQ ID NO: 346 glycopeptide with TF-antigen at Thr4 and Thr9
T5 construct: also called T4^TF/T9^TF
T5 peptide: HGVT(Galβ1‑3GalNAc)SAPDT(Galβ1‑3GalNAc)RPAPGSTAPP

T6: SEQ ID NO: 346 glycopeptide with TF-antigen at Thr9
T6 construct: also called T9^TF
T6 peptide: HGVTSAPDT(Galβ1‑3GalNAc)RPAPGSTAPP

T7: SEQ ID NO: 346 glycopeptide with Tn-antigen at Thr4, Thr9 and Thr16
T7 construct: also called T4^Tn/T9^Tn/T16^Tn
T7 peptide: HGVT(αGalNAc)SAPDT(αGalNAc)RPAPGST(αGalNAc)APP

T8: SEQ ID NO: 346 glycopeptide with TF-antigen at Thr4
T8 construct: also called T4^TF
T8 peptide: HGVT(Galβ1‑3GalNAc)SAPDTRPAPGSTAPP

B1: M16 (antibody, human IgG1, kappa, V domains shown)
VH: QVQLVESGGGLVKPGGSLRLSCAASGFTFSDYYMSWIRQAPGKGLEWVSYISSSGTTKYYADSVKGRFTISRDNAKNSLYLQMNSLRAEDTAVYYCVRENLGYCSGGSCFYYYYMDVWGKGTTVTVSS
VL: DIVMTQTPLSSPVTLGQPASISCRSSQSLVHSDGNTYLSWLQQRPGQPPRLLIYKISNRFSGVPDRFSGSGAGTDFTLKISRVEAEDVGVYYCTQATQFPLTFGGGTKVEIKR
notes: Human IgG
B2: M9 (antibody, human IgG1, kappa, V domains shown)
VH: B1 VH with F110Y
VL: not shown
notes: Human IgG
B3: M10 (antibody, human IgG1, kappa, V domains shown)
VH: B1 VH with F110Y
VL: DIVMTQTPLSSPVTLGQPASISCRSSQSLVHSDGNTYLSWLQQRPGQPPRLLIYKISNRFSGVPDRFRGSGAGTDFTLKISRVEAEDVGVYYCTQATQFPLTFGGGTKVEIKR
notes: Human IgG
B4: M11 (antibody, human IgG1, kappa, V domains shown)
VH: B1 VH with S105T, S108N
VL: not shown
B5: M12 (antibody, human IgG1, kappa, V domains shown)
VH: B1 VH with L101I, S105T, S108N
VL: not shown
notes: Human IgG
B6: M13 (antibody, human IgG1, kappa, V domains shown)
VH: B1 VH with L101I, S105T, S108N
VL: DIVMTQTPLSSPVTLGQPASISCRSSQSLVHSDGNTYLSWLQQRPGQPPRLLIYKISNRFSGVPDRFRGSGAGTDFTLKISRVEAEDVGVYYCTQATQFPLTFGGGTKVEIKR
notes: Human IgG
B7: M15 (antibody, human IgG1, kappa, V domains shown)
VH: B1 VH
VL: not shown
notes: Human IgG
B8: M17 (antibody, human IgG1, kappa, V domains shown)
VH: B1 VH with T28I, N100D, L101I
VL: not shown
B9: M19 (antibody, human IgG1, kappa, V domains shown)
VH: B1 VH with T28I, N100D, L101I
VL: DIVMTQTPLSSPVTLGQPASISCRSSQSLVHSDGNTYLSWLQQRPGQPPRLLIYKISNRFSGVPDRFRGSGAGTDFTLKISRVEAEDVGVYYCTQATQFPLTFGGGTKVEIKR
notes: Human IgG
B10: M1 (antibody, human IgG1, kappa, V domains shown)
VH: QLQLQESGPGLVKPSETLSLTCTVSGGSISSSRYYWGWIRQPPGKGLEWIGSIYYSGSTYYNPSLKSRVTISVDTSNNQFSLKLTSVTAADTAVYYCARLPESGGYSGWFDPWGQGTLVTVSS
VL: not shown
notes: Human IgG
B11: M2 (antibody, human IgG1, kappa, V domains shown)
VH: B10 VH
VL: not shown
notes: Human IgG
B12: M3 (antibody, human IgG1, lambda, V domains shown)
VH: QLQLQESGPGLVKPSETLSLTCTVSGGSISSSSYYWGWIRQPPGKGLEWIGSIYYSGSTHYNPSLKSRVTISVDTSKNQFSLKLRSVTAADTAVYYCARGVVEVRGNHYYYYYMDVWGKGTTVTVSS
VL: QSVLTQPPSVSGAPGQRVTISCTGSSSNIGAGYDVHWYQQLPGTAPKLLIYGNSYRPSGVPDRFSGSKSGTSASLAITGLQAEDEADYYCQSYDSSLSGSGVFGGGTKLTVLG
notes: Human IgG
B13: M4 (antibody, human IgG1, lambda, V domains shown)
VH: B12 VH with S67R, V73E, R85S, Y113H, V116A
VL: B12 VL with R17G, T44S, L48F, L49F, N53S, S54N, Y55N
notes: Human IgG
B14: M6 (antibody, human IgG1, kappa, V domains shown)
VH: EVQLVESGGGLVQPGGSLRLSCAASGFTVSSNYMSWVRQAPGKGLEWVSVIYSGGSTYYADSVKGRFTISRDNSKNTLYLQMNSLRAEDTAVYYCARGSTNTYYYDSSGHPWGQGTMVTVSS
VL: not shown
notes: Human IgG
B15: M5 (antibody, human IgG1, kappa, V domains shown)
VH: B14 VH
VL: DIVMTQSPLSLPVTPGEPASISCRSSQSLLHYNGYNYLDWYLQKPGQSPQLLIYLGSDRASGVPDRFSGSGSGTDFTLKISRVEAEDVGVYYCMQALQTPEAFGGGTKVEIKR
notes: Human IgG
B16: M20 (antibody, human IgG1, kappa, V domains shown)
VH: EVQLVESGGGLVQPGGSLRLSCAASGFTFSSYWMHWVRQAPGKGLVWVSHINSDGSSTSYADSVKGRFTISRDNAKNTLYLQMNSLRAEDTAVYYCARELADWGQGTLVTVSS
VL: DVVMTQSPLSLPVTLGQPASISCRSSQSLVYSDGNTYLNWFQQRPGQSPRRLIYQVSNRDSGVPDRFSGSGSGTDFTLKIGRVEAEDVGVYFCMQGTHWPWTFGQGTKVEIKR
notes: Human IgG
B17: M21 (antibody, human IgG1, kappa, V domains shown)
VH: EVQLVESGGGLVQPGGSLRLSCAASGFTVSSNYMSWVRQAPGKGLEWVSVIYSGGSTYYADSVKGRFTISRDNSKNTLYLQMNSLRAEDTAVYYCARDQEHYFDGSGYYVDYWGQGTLVTVSS
VL: B16 VL
notes: Human IgG
B18: M22 (antibody, human IgG1, kappa, V domains shown)
VH: EVQLVESGGGLVQPGGSLRLSCAASGFTVSSNYMSWVRQAPGKGLEWVSVIYSGGTTYYADSVKGRFTISRHNSKNTLYLQMNSLRAEDTAVYYCARDHDPDYGGYYMDVWGKGTTVTVSS
VL: B16 VL
notes: Human IgG
B19: M14 (antibody, human IgG1, kappa, V domains shown)
VH: B1 VH
VL: not shown
B20: M8 (antibody, human IgG1, kappa, V domains shown)
VH: B1 VH with T56S, K58I, V97A, N100R, L101I, F110Y
VL: not shown
B21: M18 (antibody, human IgG1, kappa, V domains shown)
VH: B1 VH with T28I, N100D, L101I
VL: not shown
notes: Human IgG
B22: M23 (antibody, human IgG1, kappa, V domains shown)
VH: B1 VH with L101I, S105T, S108N
VL: not shown

What was measured:
[1] = target: T9, 100 aa-long synthetic MUC1 peptide (…)5; test: ELISA titration on coated 100-mer peptide, EC50 approximated
T9 construct: also called 100-mer; vaccine 100-mer peptide
Source text: (§1) Heavy and light chains of antibodies reactive against MUC1 were generated from plasma of individuals vaccinated with a 100 aa-long synthetic MUC1 peptide (100-mer) representing the unglycosylated tumor associated MUC1 antigen (Kimura et al., 2013, Cancer Prev. Res. (Phila.), 6:18-26). Binding of monoclonal antibodies produced by combinatorial pairing of chains was characterized by ELISA using the vaccine 100-mer peptide consisting of the following sequence ([…])₅ (SEQ ID NO: 2). Briefly, 96-well high-binding ELISA plates were coated with 50 μl of the peptide diluted in carbonate buffer at 2 μg/ml. The wells were washed then blocked with 5% fat-free milk in phosphate-buffered saline (PBS). Antibodies were diluted in 5% milk in PBS with 0.1% TWEEN 20 (PBS-T) and then added to the peptide-coated, blocked wells and incubated at 37° C. for 2 hours, after which the wells were washed. Binding of antibody was probed with an anti-human IgG goat antibody conjugated to horseradish peroxidase (HRP), and signal was detected with 3,3′,5,5′-tetramethylbenzidine (TMB) substrate, which was neutralized with an acid, then the 450 nm absorbance was read. […] Additionally, the EC₅₀ of each antibody was approximated by ELISA titration (Table 1).

[2] = target: T1, Synthetic peptide HGVTSAPDTRPAPGSTAPP; test: ELISA on coated peptide, antibody 0.01 mg/ml, mean of 3
Source text: (§2) Selected antibodies from Table 1 were further characterized for binding to synthetic MUC1 glycopeptides that were synthesized with the GalNac or GaNac-Gal carbohydrates on various serines and threonines along the MUC1 tandem repeat. If placed within the specific epitope recognized by an antibody, the antibody would not bind that particular glycopeptide.

[3] = target: T2, Synthetic peptide …; test: as above
Source text: as §2

[4] = target: T3, SEQ ID NO: 346 glycopeptide with …; test: ELISA on coated glycopeptide, antibody 0.01 mg/ml, mean of 3
Source text: as §2

[5] = target: T4, SEQ ID NO: 346 glycopeptide with …; test: as above
Source text: as §2

[6] = target: T9, 100 aa-long synthetic MUC1 peptide (…)5; test: ELISA on coated 100-mer peptide
Source text: as §1

[7] = target: T5, SEQ ID NO: 346 glycopeptide with …; test: ELISA on coated glycopeptide, antibody 0.01 mg/ml, mean of 3
Source text: as §2

[8] = target: T6, SEQ ID NO: 346 glycopeptide with …; test: as above
Source text: as §2

[9] = target: T7, SEQ ID NO: 346 glycopeptide with …; test: as above
Source text: as §2

[10] = target: T8, SEQ ID NO: 346 glycopeptide with …; test: as above
Source text: as §2

Binder	EC50 [1] [ng/mL]	ELISA absorbance at 450 nm [2] [absorbance]	ELISA absorbance at 450 nm [3] [absorbance]	ELISA absorbance at 450 nm [4] [absorbance]	ELISA absorbance at 450 nm [5] [absorbance]	binding result [6]	ELISA absorbance at 450 nm [7] [absorbance]	ELISA absorbance at 450 nm [8] [absorbance]	ELISA absorbance at 450 nm [9] [absorbance]	ELISA absorbance at 450 nm [10] [absorbance]
B1	11	2.2	3.3	2.2	1.3	–	–	–	–	–
B2	4	–	–	–	–	–	–	–	–	–
B3	4	–	–	–	–	–	–	–	–	–
B4	10	–	–	–	–	–	–	–	–	–
B5	2	–	–	–	–	–	–	–	–	–
B6	2	–	–	–	–	–	–	–	–	–
B7	5	–	–	–	–	–	–	–	–	–
B8	–	–	–	–	–	binds	–	–	–	–
B9	–	–	–	–	–	binds	–	–	–	–
B10	11	0.1	3.2	0.1	0.1	–	0.1	0.1	0.1	0.1
B11	7	0.1	3.4	0.1	0.1	–	0.1	0.1	0.1	0.1
B12	11	0.1	3.1	0.1	0.1	–	0.1	0.1	0.1	0.1
B13	4	–	–	–	–	–	–	–	–	–
B14	12	–	–	–	–	–	–	–	–	–
B15	100	–	–	–	–	–	–	–	–	–
B16	4	1.9	2.8	–	2.1	–	1.9	1.9	–	2
B17	11	2.1	3	–	2.1	–	2.2	2.1	–	2.1
B18	7	2.1	3.1	–	2.2	–	2.3	2.3	–	2.2
B19	2	2.1	2.9	2.4	2.1	–	–	–	–	1.6
B20	4	2.1	3	2.5	2.1	–	–	–	–	1.6
B21	–	2.4	3.3	2.5	2.7	binds	–	–	–	1.5
B22	–	2	2.9	2.5	2.4	binds	–	–	–	1.7
